Data reported in the supplement of paper PMC9112550, “Optimization of the antimicrobial peptide Bac7 by deep mutational scanning” (BMC Biology, 2022).

These sequences were tested on Escherichia coli TOP10 (assay: shrunken log2 fold change of peptide-encoding DNA abundance (4.5 h post-induction vs induction); higher = less antimicrobial activity (less host growth inhibition)). Settings: time post-induction: 4.5 h; library: site-saturation at positions 5, 18, 19, 20.
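Note: peptides expressed intracellularly from a pBAD plasmid library in pooled LB shake-flask culture, induced with 0.3% L-arabinose, DNA abundance read by NGS, three biological replicates, DESeq2 with apeglm shrinkage.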

Sequence	shrunken log2 fold change
RRIRVRPPRLPRPRPRPYVMPRP	-0.619
RRIRVRPPRLPRPRPRPYWGPRP	-0.526
RRIRVRPPRLPRPRPRPYWTPRP	-0.366
RRIRVRPPRLPRPRPRPYYDPRP	-0.429
RRIRVRPPRLPRPRPRPYYYPRP	-0.796
RRIRWRPPRLPRPRPRPAAGPRP	0.545
RRIRWRPPRLPRPRPRPACRPRP	0.258
RRIRWRPPRLPRPRPRPADFPRP	-0.0275
RRIRWRPPRLPRPRPRPAFDPRP	0.397
RRIRWRPPRLPRPRPRPAGTPRP	0.349
RRIRWRPPRLPRPRPRPAIMPRP	-0.211
RRIRWRPPRLPRPRPRPALNPRP	0.801
RRIRWRPPRLPRPRPRPAMYPRP	-0.112
RRIRWRPPRLPRPRPRPAQWPRP	0.287
RRIRWRPPRLPRPRPRPASEPRP	0.329
RRIRWRPPRLPRPRPRPASSPRP	-0.0381
RRIRWRPPRLPRPRPRPATNPRP	0.317
RRIRWRPPRLPRPRPRPATPPRP	0.755
RRIRWRPPRLPRPRPRPAVAPRP	0.544
RRIRWRPPRLPRPRPRPAVNPRP	0.185
RRIRWRPPRLPRPRPRPAYVPRP	0.0521
RRIRWRPPRLPRPRPRPCAVPRP	0.198
RRIRWRPPRLPRPRPRPCDDPRP	-0.00725
RRIRWRPPRLPRPRPRPCESPRP	-0.0177
RRIRWRPPRLPRPRPRPCETPRP	-0.0636

Sequence	shrunken log2 fold change
RRIRWRPPRLPRPRPRPCGKPRP	0.0489
RRIRWRPPRLPRPRPRPCHPPRP	-0.11
RRIRWRPPRLPRPRPRPCIVPRP	0.0112
RRIRWRPPRLPRPRPRPCIYPRP	-0.162
RRIRWRPPRLPRPRPRPCKEPRP	-0.125
RRIRWRPPRLPRPRPRPCLAPRP	0.329
RRIRWRPPRLPRPRPRPCLQPRP	-0.21
RRIRWRPPRLPRPRPRPCLSPRP	-0.15
RRIRWRPPRLPRPRPRPCMMPRP	-0.229
RRIRWRPPRLPRPRPRPCMSPRP	-0.00264
RRIRWRPPRLPRPRPRPCNEPRP	-0.409
RRIRWRPPRLPRPRPRPCNIPRP	-0.133
RRIRWRPPRLPRPRPRPCNKPRP	-0.738
RRIRWRPPRLPRPRPRPCRDPRP	-0.0737
RRIRWRPPRLPRPRPRPCREPRP	-0.189
RRIRWRPPRLPRPRPRPCSLPRP	-0.0592
RRIRWRPPRLPRPRPRPCSVPRP	0.0151
RRIRWRPPRLPRPRPRPCTCPRP	0.0236
RRIRWRPPRLPRPRPRPCTVPRP	-0.438
RRIRWRPPRLPRPRPRPCVCPRP	0.222
RRIRWRPPRLPRPRPRPDAAPRP	2.23
RRIRWRPPRLPRPRPRPDACPRP	0.00464
RRIRWRPPRLPRPRPRPDAWPRP	0.884
RRIRWRPPRLPRPRPRPDCPPRP	0.0548
RRIRWRPPRLPRPRPRPDDRPRP	0.171

Sequence	shrunken log2 fold change
RRIRWRPPRLPRPRPRPDEMPRP	-0.0412
RRIRWRPPRLPRPRPRPDENPRP	0.644
RRIRWRPPRLPRPRPRPDEPPRP	-0.00634
RRIRWRPPRLPRPRPRPDGAPRP	0.227
RRIRWRPPRLPRPRPRPDGHPRP	0.0237
RRIRWRPPRLPRPRPRPDHMPRP	-0.128
RRIRWRPPRLPRPRPRPDHTPRP	-0.000848
RRIRWRPPRLPRPRPRPDIHPRP	-0.196
RRIRWRPPRLPRPRPRPDIVPRP	0.469
RRIRWRPPRLPRPRPRPDIYPRP	-0.0594
RRIRWRPPRLPRPRPRPDKAPRP	-0.00149
RRIRWRPPRLPRPRPRPDKIPRP	-0.0504
RRIRWRPPRLPRPRPRPDLHPRP	0.243
RRIRWRPPRLPRPRPRPDLWPRP	0.234
RRIRWRPPRLPRPRPRPDMCPRP	0.262
RRIRWRPPRLPRPRPRPDMGPRP	0.454
RRIRWRPPRLPRPRPRPDMSPRP	-0.121
RRIRWRPPRLPRPRPRPDMYPRP	-0.389
RRIRWRPPRLPRPRPRPDNHPRP	-0.299
RRIRWRPPRLPRPRPRPDNYPRP	-0.00844
RRIRWRPPRLPRPRPRPDSVPRP	-0.0816
RRIRWRPPRLPRPRPRPDTMPRP	0.19
RRIRWRPPRLPRPRPRPDVQPRP	0.0431
RRIRWRPPRLPRPRPRPDVSPRP	0.265
RRIRWRPPRLPRPRPRPDWEPRP	0.229

Sequence	shrunken log2 fold change
RRIRWRPPRLPRPRPRPDYSPRP	-0.106
RRIRWRPPRLPRPRPRPECCPRP	1.22
RRIRWRPPRLPRPRPRPECLPRP	0.444
RRIRWRPPRLPRPRPRPEDFPRP	0.0629
RRIRWRPPRLPRPRPRPEGNPRP	0.29
RRIRWRPPRLPRPRPRPEGYPRP	0.607
RRIRWRPPRLPRPRPRPEIVPRP	-0.00443
RRIRWRPPRLPRPRPRPEKQPRP	0.0441
RRIRWRPPRLPRPRPRPELGPRP	-0.0384
RRIRWRPPRLPRPRPRPELHPRP	0.308
RRIRWRPPRLPRPRPRPEMFPRP	0.274
RRIRWRPPRLPRPRPRPEMHPRP	0.952
RRIRWRPPRLPRPRPRPEMLPRP	1.17
RRIRWRPPRLPRPRPRPEMPPRP	0.364
RRIRWRPPRLPRPRPRPEMYPRP	0.144
RRIRWRPPRLPRPRPRPENLPRP	0.0583
RRIRWRPPRLPRPRPRPENYPRP	-0.122
RRIRWRPPRLPRPRPRPEPTPRP	0.857
RRIRWRPPRLPRPRPRPEQEPRP	0.0529
RRIRWRPPRLPRPRPRPEQIPRP	0.199
RRIRWRPPRLPRPRPRPEQPPRP	0.157
RRIRWRPPRLPRPRPRPEQQPRP	1.39
RRIRWRPPRLPRPRPRPERPPRP	0.292
RRIRWRPPRLPRPRPRPESFPRP	0.528
RRIRWRPPRLPRPRPRPESLPRP	0.412

Sequence	shrunken log2 fold change
RRIRWRPPRLPRPRPRPETCPRP	0.16
RRIRWRPPRLPRPRPRPEVCPRP	0.000572
RRIRWRPPRLPRPRPRPEVLPRP	0.167
RRIRWRPPRLPRPRPRPEWWPRP	-0.0316
RRIRWRPPRLPRPRPRPEYGPRP	0.222
RRIRWRPPRLPRPRPRPFCIPRP	-0.293
RRIRWRPPRLPRPRPRPFCKPRP	-0.13
RRIRWRPPRLPRPRPRPFDMPRP	-0.105
RRIRWRPPRLPRPRPRPFGFPRP	0.321
RRIRWRPPRLPRPRPRPFGNPRP	-0.0165
RRIRWRPPRLPRPRPRPFHHPRP	-0.077
RRIRWRPPRLPRPRPRPFISPRP	-0.174
RRIRWRPPRLPRPRPRPFIVPRP	-0.325
RRIRWRPPRLPRPRPRPFKMPRP	-0.0125
RRIRWRPPRLPRPRPRPFKNPRP	-0.274
RRIRWRPPRLPRPRPRPFLPPRP	-0.687
RRIRWRPPRLPRPRPRPFLQPRP	-0.499
RRIRWRPPRLPRPRPRPFNIPRP	-0.715
RRIRWRPPRLPRPRPRPFQDPRP	-0.496
RRIRWRPPRLPRPRPRPFQNPRP	-0.235
RRIRWRPPRLPRPRPRPFRAPRP	-0.112
RRIRWRPPRLPRPRPRPFRPPRP	-0.165
RRIRWRPPRLPRPRPRPFRVPRP	-0.0169
RRIRWRPPRLPRPRPRPFVIPRP	-0.396
RRIRWRPPRLPRPRPRPFVTPRP	-0.215

Sequence	shrunken log2 fold change
RRIRWRPPRLPRPRPRPFWCPRP	0.193
RRIRWRPPRLPRPRPRPFYSPRP	-0.681
RRIRWRPPRLPRPRPRPGANPRP	0.0566
RRIRWRPPRLPRPRPRPGAPPRP	0.641
RRIRWRPPRLPRPRPRPGCAPRP	0.948
RRIRWRPPRLPRPRPRPGCPPRP	0.0461
RRIRWRPPRLPRPRPRPGDVPRP	0.0583
RRIRWRPPRLPRPRPRPGEAPRP	0.799
RRIRWRPPRLPRPRPRPGECPRP	0.00474
RRIRWRPPRLPRPRPRPGEHPRP	0.232
RRIRWRPPRLPRPRPRPGFEPRP	0.427
RRIRWRPPRLPRPRPRPGGPPRP	0.367
RRIRWRPPRLPRPRPRPGGQPRP	-0.0831
RRIRWRPPRLPRPRPRPGGRPRP	0.418
RRIRWRPPRLPRPRPRPGGYPRP	0.215
RRIRWRPPRLPRPRPRPGHGPRP	0.214
RRIRWRPPRLPRPRPRPGHRPRP	0.315
RRIRWRPPRLPRPRPRPGICPRP	0.146
RRIRWRPPRLPRPRPRPGKVPRP	-0.132
RRIRWRPPRLPRPRPRPGLLPRP	0.403
RRIRWRPPRLPRPRPRPGLNPRP	0.0915
RRIRWRPPRLPRPRPRPGNKPRP	-0.0586
RRIRWRPPRLPRPRPRPGNQPRP	-0.225
RRIRWRPPRLPRPRPRPGPTPRP	0.487
RRIRWRPPRLPRPRPRPGPYPRP	-0.161
